Data taken from patent US20230137032A1 (GlaxoSmithKline, published 2023).

Legend:
[1] = target: T1, recombinant cyno BCMA, in house material (cyno, UniProt A0A2K5UD97 4-52); assay: ProteOn SPR run 2, antibody captured on Protein A, 25C
T1 construct: also called Cyno in house BCMA

[2] = target: T2, recombinant human BCMA, in house material (human, UniProt Q02223 4-53, limits assumed); assay: as above
T2 construct: also called Human in house BCMA; In house human BCMA

[3] = target: T3, human BCMA expressed on cells (human, UniProt Q02223 1-184); assay: FACS on ARH77-hBCMA 10B5 transfectant cells, antibody 5 µg/mL, PE anti-mouse IgG
T3 construct: whole, on cells; also called human BCMA HEK293; ARH77-hBCMA 10B5 BCMA expressing transfectant cells
T3 sequence (looked up): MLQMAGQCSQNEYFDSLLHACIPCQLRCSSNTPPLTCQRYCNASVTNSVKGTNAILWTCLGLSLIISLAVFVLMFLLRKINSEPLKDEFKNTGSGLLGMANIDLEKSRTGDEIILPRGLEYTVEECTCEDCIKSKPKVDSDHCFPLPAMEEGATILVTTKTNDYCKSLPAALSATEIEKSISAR
Description: (§1) Cells were incubated for 20 mins at room temperature (RT) and then washed with FACS buffer (PBS+0.5% BSA+0.1% sodium azide) to remove unbound antibody. Cells were incubated with a secondary PE labelled anti-mouse IgG antibody for 15 minutes at RT and then washed with FACS buffer to remove unbound antibody. Cells were analysed by FACS to detect antibody bound to the cells.

[4] = target: T3, human BCMA expressed on cells; assay: FACS on H929 multiple myeloma cells, PE anti-mouse IgG
Description: as §1

T1 sequence (A0A2K5UD97 entry or part of it): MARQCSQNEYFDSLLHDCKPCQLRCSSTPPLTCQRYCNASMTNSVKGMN

B1: S307118G03 H5L1 (antibody, human IgG1, kappa, V domains shown)
VH: QVQLVQSGAEVKKPGSSVKVSCKASGYTFTDYYMKWVRQAPGQGLEWIGEIYPNNGGITYNQKFKGRATLTVDKSTSTAYMELSSLRSEDTAVYYCANGYEFDYWGQGTLVTVSS
VL: DIQMTQSPSSLSASVGDRVTITCSASQGISNYLNWYQQKPGKAPKLLIYYTSSLHSGVPSRFSGSGSGTDYTLTISSLQPEDFATYYCQQYSKLPWTFGQGTKLEIKR
notes: Humanised, human IgG1 kappa; also called S307118G03 humanised H5L1
[1]
  binding result: no binding
[2]
  binding result: no binding (tested: up to 256 nM)

B2: murine S332126E04 (antibody, V domains shown)
VH: QVQLQQPGAELVKPGASVKLSCKASGYTFTNYWMHWVKQRPGQGLEWIGIIHPNSGSTNYNEKFKSKATLTVDKSSSTAYMQLSSLTSEDSAVYYCARGIYDYPFAYWGQGTLVTVSS
VL: DIVLTQSPASLAVSLGQRATISCRASESVSIHGTHLMHWYQQKPGQPPKLLIYAASNLESGVPARFSGSGSETDFTLNIHPVEEEDAATYFCQQSIEDPYTFGGGTKLEIKR
notes: Murine hybridoma antibody
[3]
  binding result: binds

B3: murine S307118G03 (antibody, IgG2a, V domains shown)
VH: EVQLQQSGPELVKPGASVKISCKASGYTFTDYYMKWVKQSHGKSLEWIGEIYPNNGGITYNQKFKGKATLTVDKSSSTAYMELRSLTSEDSAVYYCANGYEFVYWGQGTLVTVSA
VL: DIQMTQTASSLSASLGDRVTISCSASQGISNYLNWYQQKPDGTVKLLIYYTSSLHSGVPSRFSGSGSGTDYSLTISNLEPEDIATYYCQQYSKLPWTFGGGTKLEIKR
notes: Murine hybridoma antibody; also called S307118G03 (murine parental mAb)
[4]
  binding result: binds
